In assay [1] the target is T1, Recombinant Human β-NGF (human, UniProt P01138 122-241).
T1 construct: Bought reagent; also called huNGF
Briefly: Biacore SPR. The procedure:
(§1) The BIACORE assay (Biacore, Inc, Piscataway, N.J.) determines the affinity of antibodies or DVD-Ig with kinetic measurements of on-rate and off-rate constants. Binding of antibodies or DVD-Ig to a target antigen (for example, a purified recombinant target antigen) is determined by surface plasmon resonance-based measurements with a Biacore® 1000 or 3000 instrument (Biacore® AB, Uppsala, Sweden) using running HBS-EP (10 mM HEPES [pH 7.4], 150 mM NaCl, 3 mM EDTA, and 0.005% surfactant P20) at 25° C. All chemicals are obtained from Biacore® AB (Uppsala, Sweden) or otherwise from a different source as described in the text. For example, approximately 5000 RU of goat anti-mouse IgG, (Fcγ), fragment specific polyclonal antibody (Pierce Biotechnology Inc, Rockford, Ill.) diluted in 10 mM sodium acetate (pH 4.5) is directly immobilized across a CMS research grade biosensor chip using a standard amine coupling kit according to manufacturer's instructions and procedures at 25 μg/ml. Unreacted moieties on the biosensor surface are blocked with ethanolamine. Modified carboxymethyl dextran surface in flowcell 2 and 4 is used as a reaction surface. Unmodified carboxymethyl dextran without goat anti-mouse IgG in flow cell 1 and 3 is used as the reference surface. For kinetic analysis, rate equations derived from the 1:1 Langmuir binding model are fitted simultaneously to association and dissociation phases of all eight injections (using global fit analysis) with the use of Biaevaluation 4.0.1 software. Purified antibodies or DVD-Ig are diluted in HEPES-buffered saline for capture across goat anti-mouse IgG specific reaction surfaces. Antibodies or DVD-Ig to be captured as a ligand (25 μg/ml) are injected over reaction matrices at a flow rate of 5 μl/min. The association and dissociation rate constants, kₒₙ (M⁻¹s⁻) and koff(s⁻¹) are determined under a continuous flow rate of 25 μl/min. Rate constants are derived by making kinetic binding measurements at different antigen concentrations ranging from 10-200 nM. The equilibrium dissociation constant (M) of the reaction between antibodies or DVD-Igs and the target antigen is then calculated from the kinetic rate constants by the following formula: KD=koff/kₒₙ. Binding is recorded as a function of time and kinetic rate constants are calculated.
(In general: Surface plasmon resonance follows binding to a sensor surface in real time, without labels.)

Assay [2] concerns the target T2, Recombinant Human TNF-α/TNFSF1A (human, UniProt P01375 77-233).
T2 construct: Bought reagent; The same protein name (huTNFα) is used in the L929 neutralization assay; also called huTNFα
Briefly: Biacore SPR. The procedure:
as §1

In assay [3] the target is T2, Recombinant Human TNF-α/TNFSF1A. Put plainly: cell-based or functional assay.
The target in assay [4] is T1, Recombinant Human β-NGF. Briefly: cell-based or functional assay.

T2 sequence (P01375 77-233 limits assumed): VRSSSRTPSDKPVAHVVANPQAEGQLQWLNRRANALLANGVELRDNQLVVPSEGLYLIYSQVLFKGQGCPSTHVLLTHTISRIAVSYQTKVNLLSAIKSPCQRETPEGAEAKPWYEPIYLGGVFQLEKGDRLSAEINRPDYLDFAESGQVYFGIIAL
T1 sequence (P01138 122-241 limits assumed): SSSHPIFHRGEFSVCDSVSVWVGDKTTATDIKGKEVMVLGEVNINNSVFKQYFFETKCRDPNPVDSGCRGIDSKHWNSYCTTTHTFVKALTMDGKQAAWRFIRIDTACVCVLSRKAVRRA

B1: DVD1502 (bispecific antibody, human IgG1, kappa)
heavy: not shown
light: DIQMTQSPSSLSASVGDRVTITCRASQSISNNLNWYQQKPGKAPKLLIYYTSRFHSGVPSRFSGSGSGTDFTFTISSLQPEDIATYYCQQEHTLPYTFGQGTKLEIKRTVAAPDIVMTQSHKFMSTTVGDRVSITCKASQAVSSAVAWYQQKPGQSPKLLIYWASTRHTGVPDRFTGSGSVTDFTLTIHNLQAEDLALYYCQQHYSTPFTFGSGTKLEIKRTVAAPSVFIFPPSDEQLKSGTASVVCLLNNFYPREAKVQWKVDNALQSGNSQESVTEQDSKDSTYSLSSTLTLSKADYEKHKVYACEVTHQGLSSPVTKSFNRGEC
notes: DVD-Ig; linker set 3; also called DVD1502H; DVD1502L
As usually defined, the Kd is a measure of binding affinity in units of concentration. In general, koff refers to the rate constant with which the complex falls apart. Usually kon stands for the rate constant with which the complex forms. For B1, in the assay with Recombinant Human β-NGF [1], the Kd is under 0.4 pM, the koff is under 1e-06 s⁻¹ and the kon was 2.5e+06 M⁻¹ s⁻¹. In addition, in assay [2], the Kd turned out to be 300 pM, the koff was found to be 5.5e-05 s⁻¹ and the kon was 180000 M⁻¹ s⁻¹. The “TNFα Neutralization Assay EC50 (L929 cells)” value in assay [3] came to 460 pM. Further, the “NGF Inhibition Assay EC50 (TF-1 cell proliferation)” value with Recombinant Human β-NGF [4] was determined as 28 pM.

B2: DVD1520 (bispecific antibody, human IgG1, kappa)
heavy: not shown
light: DIQMTQSPSSLSASVGDRVTITCRASQSISNNLNWYQQKPGKAPKLLIYYTSRFHSGVPSRFSGSGSGTDFTFTISSLQPEDIATYYCQQEHTLPYTFGQGTKLEIKRTVAAPDIQMTQSPSSLSASVGDRVTITCRASQGIRIDLGWYQQKPGKAPKRLIYAASTLQSGVPSRFSGSGSGTEFIFTISSLQPEDFASYYCLQHKSYPLTFGGGTKVEIKRTVAAPSVFIFPPSDEQLKSGTASVVCLLNNFYPREAKVQWKVDNALQSGNSQESVTEQDSKDSTYSLSSTLTLSKADYEKHKVYACEVTHQGLSSPVTKSFNRGEC
notes: DVD-Ig; linker set 3; also called DVD1520H; DVD1520L
Turning to B2, in the assay with Recombinant Human β-NGF [1], the Kd is 3.4 pM, the off-rate (koff) was 9.3e-06 s⁻¹ and the kon amounted to 2.7e+06 M⁻¹ s⁻¹. In addition, in assay [2], the Kd was 3.8 pM, the off-rate (koff) was 4.4e-06 s⁻¹ and the kon was 1.1e+06 M⁻¹ s⁻¹. Moreover, the “TNFα Neutralization Assay EC50 (L929 cells)” value in assay [3] was 7210 pM. In the assay with Recombinant Human β-NGF [4], the “NGF Inhibition Assay EC50 (TF-1 cell proliferation)” value turned out to be 25 pM.

The values above are taken from patent US20120087858A1 (AbbVie / Abbott, published 2012).
